Assays:
avidin = avidin (Gallus gallus, UniProt P02701); settings: cited from earlier work
streptavidin = streptavidin (Streptomyces avidinii, UniProt P22629); settings: cited from earlier work
C57BL/6 mice = assay: Mixed hematopoietic allogeneic chimerism after bone marrow transplantation, 100 cGy total body irradiation, with cyclophosphamide; settings: mouse, in vivo
Method: C57BL/6 mice were subjected to 100 cGy total body irradiation followed by intravenous transplantation of 30×10^6 unmodified (BMC) or the combination of SA-FasL and SA-IL-2 (mFasL/IL-2-BMC) one day later. […] All groups were treated i.p. with rapamycin (2 mg/kg) daily for 10 doses starting on day 6 pot-transplantation. The test group was also treated starting on day 6 post-transplantation with both soluble SA-FasL (sFasL; 500 ng/daily for 15 doses) and IL-2 (25,000 IU/daily for 7 doses). Percent donor chimerism at various times post-transplantation was assessed using peripheral blood lymphocytes with antibodies against donor class I MHC molecule in flow cytometry.
The tissues were, processed into single cell suspension, stained with antibodies to the indicated cell surface markers, and analyzed using flow cytometry.

[1] = tested on: NHP (rhesus monkey) PBMCs; assay: Apoptosis of NHP PBMC T cells cultured with SA-FasL (Annexin V, flow cytometry); format: cell-based; settings: Teff (CD3+CD28-Fas+) or T central (CD3+CD28+Fas+) memory; PBMCs from 3 NHPs
Method: FIG. 3. SA-FasL induces apoptosis in nonhuman primate (NHP) Teff cells. NHP (rhesus monkey) PBMCs were cultured with SA-FasL and apoptosis was assessed using Annexin V by gating on CD3^+ T cells. Cells incubated with SA served as controls. Data is representative of PBMCs from 3 NHPs.
Inasmuch as individuals with onset of autoimmunity have a large pool of activated and memory T cells, we asked if SA-FasL is capable of inducing apoptosis in such cells. For this purpose, we used nonhuman primate (NHP) peripheral blood lymphocytes (PBMCs). The PBMCs from 3 different NHPs were incubated with SA-FasL protein and apoptosis was assessed using flow cytometry.

[2] = tested on: STZ diabetic C57BL/6 mice; assay: Intraportal allogeneic islet transplantation, SA-FasL and IL-2; format: in vivo; settings: soluble SA-FasL as monotherapy
Method: BALB/c islets were transplanted intraportally into STZ diabetic age-matched males and females C57BL/6 mice.
These islets were then immediately transplanted intraportally into diabetic mice (450-550 islets/mouse). Mice were then treated with the indicated proteins and doses. Animals were monitored for diabetes, and those with two consecutive daily measurements of ≥250 mg/dl blood glucose level were considered diabetic and confirmation of graft failure.

[3] = tested on: C57BL/6 recipients of allogeneic BALB/c hearts; assay: Cardiac allograft survival, BALB/c-to-C57BL/6 model; format: in vivo, mice; settings: IL-2 7 doses or SA-FasL 15 doses i.p., no other manipulation
Text: We next tested if SA-FasL as a biologic can work as an immunomodulator to prevent rejection of vascularized solid grafts. Heart transplantation from BALB/c into C57BL/6 mice was used as a stringent allogeneic heart graft model.

Female NOD mice = assay: Prevention of type 1 diabetes in NOD mice; format: in vivo
Method: FIG. 5. Systemic treatment with SA-FasL protein delays the onset and incidence of Type 1 Diabetes in NOD. Female NOD mice were treated with the indicated agents at 10-week of age. Mice were then monitored for hyperglycemia by urine glucose test, which was confirmed by a blood glucose test. Mice with >200 mg/dl blood glucose levels were considered diabetic. Soluble (s)SA-FasL in PBS was used at 500 ng/injection intraperitoneally daily for 30 days. […] Female mice without any treatment were used as controls. In the SA-FasL only treatment group, 3 diabetic mice were treated with an additional 10 daily doses (black arrows) of SA-FasL soon after incidence of diabetes, resulting in temporary remission of hyperglycemia in ⅔ of those mice.
Inasmuch as antigen-experienced cells express Fas receptor on their surface, systemic treatment with SA-FasL has potential to eliminate such cells and control/reverse T1D without a major effect on quiescent T cell repertoire. This notion was tested by treating 10-wk female NOD mice daily with 500 ng SA-FasL protein for 30 days. […] We next asked the question if SA-FasL will work in synergy with IL-2. […] Indeed, T regulatory cells express FasL on their surface and control T effector responses by direct elimination via Fas receptor or indirectly by eliminating Fas-expressing DCs.

[4] = tested on: STZ diabetic C57BL/6 mice; assay: Allogeneic islet transplantation under the kidney capsule (BALB/c-to-C57BL/6); format: in vivo
Method: FIG. 1. Systemic immunomodulation with soluble SA-FasL synergizes with SA-FasL-engineered islets for long-term survival. BALB/c islets were engineered with SA-FasL (mSA-FasL) or SA control (mSA) proteins and transplanted under the kidney capsule of STZ diabetic C57BL/6 mice. Soluble (s)SA-FasL was administered i.p. at 2-5 μg/mouse on days 1, 3, 5, 7 post-transplantation. In selected groups rapamycin was used at 0.2 mg/kg daily for 15 days starting the day of transplantation.
Treatment with soluble SA-FasL only under a short course of rapamycin was also effective, achieving >80% graft survival.

[5] = tested on: STZ diabetic C57BL/6 mice; assay: Intraportal allogeneic islet transplantation (BALB/c-to-C57BL/6), soluble SA-FasL; format: in vivo
Method: FIG. 2. Survival of allogeneic islets transplanted intraportally with different treatment protocols. BALB/c islets were engineered with SA-FasL protein and transplanted intraportally into STZ diabetic C57BL/6 mice. Rapa was used daily at 0.2 mg/kg for 15 doses starting on day of transplantation. Soluble (s)FasL was used at the indicated dose and regimens.
To further establish SA-FasL as a soluble biologic, we tested its immunomodulatory capacity for the prevention of allogeneic islets transplanted using a more stringent model of intraportal islet transplantation. The rationale for this model is twofold. First, intraportal islet transplantation is the only site practiced in the clinic. Second, intraportal islet transplantation provides a much more stringent model as compared to subrenal islet transplantation. […] Therefore, we used this model to test if SA-FasL can be developed as a soluble biologic for the prevention and treatment of type I diabetes and foreign graft rejection.

Sequence of avidin (P02701 25-152): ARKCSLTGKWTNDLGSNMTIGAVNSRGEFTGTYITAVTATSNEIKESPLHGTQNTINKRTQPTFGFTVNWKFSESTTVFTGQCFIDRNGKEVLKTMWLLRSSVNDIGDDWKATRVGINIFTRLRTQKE
Sequence of streptavidin (P22629 25-183): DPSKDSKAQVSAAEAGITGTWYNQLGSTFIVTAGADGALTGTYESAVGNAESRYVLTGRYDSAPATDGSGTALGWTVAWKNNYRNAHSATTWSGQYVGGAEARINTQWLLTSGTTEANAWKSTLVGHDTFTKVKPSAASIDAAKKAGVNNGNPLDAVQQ

O=C(O)CCCC[C@@H]1SC[C@@H]2NC(=O)N[C@@H]21 [biotin]
affinity for avidin (avidin): 10^15 M^−1 | affinity for streptavidin (streptavidin): 10^13 M^−1

O=P1(N(CCCl)CCCl)NCCCO1 (stereo not shown) [cyclophosphamide]
establishment of mixed hematopoietic allogeneic chimerism (C57BL/6 mice): acted synergistically

B1: SA-FasL: chimeric protein of core streptavidin and the extracellular domain of FasL (rat FasL without metalloproteinase site); used unbound, in soluble form (protein)
chain: RSDYKDDDDKGTITGTWYNQLGSTFIVTAGADGALTGTYESAVGNAESRYVLTGRYDSAPATDGSGTALGWTVAWKNNYRNAHSATTWSGQYVGGAEARINTQWLLTSGATEANAWKSTLVGHDTFTKVKPSAASSGGGGSGGGGSGEFIANPSTPSETKKPRSVAHLTGNPRSRSIPLEWEDTYGTALISGVKYKKGGLVINEAGLYFVYSKVYFRGQSCNSQPLSHKVYMRNFKYPGDLVLMEEKKLNYCTTGQIWAHSSYLGAVFNLTVADHLYVNISQLSLINFEESKTFFGLYKL
apoptosis of T cells [1]: Almost all T cells expressing Fas underwent apoptosis | allogeneic islets whose rejection was prevented [2]: ~60% | effect on cardiac graft survival, monotherapy [3]: moderate prolongation of the grafts | toxicity (Female NOD mice; 500 ng SA-FasL daily for 30 days): did not observe any sign of SA-FasL toxicity | onset and incidence of T1D vs controls (Female NOD mice; 500 ng SA-FasL daily for 30 days, 10-wk female NOD): significantly delayed the onset and incidence of T1D | temporary remission of hyperglycemia (fraction of mice) (Female NOD mice; 3 diabetic mice given additional 10 daily doses of SA-FasL soon after incidence of diabetes): ⅔ | time of delayed rejection ([4]; soluble SA-FasL 2-5 μg/mouse i.p. on days 1, 3, 5, 7, SA-FasL-islet grafts): ~70 days | recipients with delayed rejection of allogeneic SA-FasL-islet grafts (fraction) ([4]; soluble SA-FasL 2-5 μg/mouse i.p. on days 1, 3, 5, 7 post-transplantation, SA-FasL-engineered BALB/c islets under kidney capsule): ⅛ | graft survival ([4]; soluble SA-FasL only, under a short course of rapamycin): > 80% | islet graft survival ([5]; 4 doses of SA-FasL (2-5 μg/injection) i.v. or i.p. on days 1, 3, 5, 7, SA-FasL-engineered islets, intraportal): All BALB/c islets engineered with SA-FasL protein survived | mice that rejected the graft ([5]; soluble FasL 1 μg injection daily for 20 days from day of transplantation, no islet engineering, intraportal): one out of six | day of graft rejection post-transplantation ([5]; soluble FasL 1 μg injection daily for 20 days, the one rejecting mouse): 80 days | toxicity ([5]; soluble biologic at therapeutic doses): without toxicity

Reference: US12023367B2, “Immunomodulation for the long term prevention and treatment of autoimmune diseases and foreign tissue rejection” (University of Louisville Research Foundation, Inc., priority 2015, dated 2024)
